Laboratory results as given in patent US20230158141A1.

Assays:
[1] = molecular target: T1, IL2 receptor gamma (UniProt P31785); assay: IP and ELISA; S3 on the Cys
T1 sequence (looked up): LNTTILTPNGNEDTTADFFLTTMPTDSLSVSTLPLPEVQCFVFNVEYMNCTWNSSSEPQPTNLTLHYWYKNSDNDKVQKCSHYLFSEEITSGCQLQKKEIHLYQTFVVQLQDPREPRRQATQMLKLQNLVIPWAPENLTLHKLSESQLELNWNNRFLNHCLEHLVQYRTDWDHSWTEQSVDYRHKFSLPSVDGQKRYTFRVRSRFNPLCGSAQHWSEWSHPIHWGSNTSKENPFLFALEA

[2] = molecular target: T2, IL2Rb (UniProt P14784); assay: IP and ELISA; Cys mutant, no arm
T2 sequence (looked up): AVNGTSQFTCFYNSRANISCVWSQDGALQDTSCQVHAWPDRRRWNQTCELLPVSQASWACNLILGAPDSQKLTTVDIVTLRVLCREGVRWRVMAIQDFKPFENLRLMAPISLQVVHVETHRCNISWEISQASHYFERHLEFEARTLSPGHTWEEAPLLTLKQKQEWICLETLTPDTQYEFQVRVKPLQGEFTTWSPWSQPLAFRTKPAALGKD

Substance: IL2-Thr51Cys (from UniProt P60568 21-153) (ligand)
- binding activity after conjugating to S3, % of native IL2 [1]: 89.7%

Substance: IL2-Leu80Cys (from UniProt P60568 21-153) (ligand)
- binding activity after mutation, % of native IL2 [2]: 27%
